The values that follow come from patent US20050118651A1 (NEURALAB, published 2005).

This test has as its target T1, synthetic Aβ1-42 peptide (aggregated in the ELISAs) (human, UniProt P05067 672-713).
T1 construct: range 672-713; It was coated as aggregated peptide in the ELISAs; also called aggregated Aβ1-42; Aβ (1-42) aggregate
Nature of the test: competitive Aβ 1-42 ELISA; competitor biotinylated m12A11Cγ2a at a fixed concentration. A general note: An ELISA detects its analyte on a solid surface through an enzyme-linked reagent.

B1: humanized 12A11 version 1 (antibody, V domains shown)
VH: QVQLVESGGGVVQPGRSLRLSCAFSGFSLSTSGMSVGWIRQAPGKGLEWLAHIWWDDDKYYNPSLKSRLTISKDTSKNTVYLQMNSLRAEDTAVYYCARRTTTADYFAYWGQGTTVTVSS
VL: DVVMTQSPLSLPVTPGEPASISCRSSQSIVHSNGNTYLEWYLQKPGQSPQLLIYKVSNRFSGVPDRFSGSGSGTDFTLKISRVEAEDVGVYYCFQSSHVPLTFGQGTKLEIK
notes: Made by transient expression in COS cells; also called h12A11v1; 12A11v1
For B1, the “fold of IC50 against murine and chimeric 12A11” value was ≤ 2 fold (x IC50).
